Data: PMC4498709

Columns and labels:
[1] = system: ctMex67 deltaN (with Mtr2);ctMtr2 (Chaetomium thermophilum;Chaetomium thermophilum); assay: fluorescence anisotropy; conditions: 20 mM Tris-HCl pH 8.0, 50 mM NaCl, 10 nM DY-547-labelled RNA, serially diluted protein, temperature not stated
[2] = molecular target: Chaetomium thermophilum Mex67 LRR-NTF2L (ctMex67^LRR-NTF2L; residues 180-556) (Chaetomium thermophilum); assay: SEC-MALS; ctMex67^LRR-NTF2L alone; single peak; dimer
[3] = system: ctMex67 RRM-LRR (NTF2L-Mtr2 deletion) (Chaetomium thermophilum); assay: fluorescence anisotropy; conditions: 20 mM Tris-HCl pH 8.0, 50 mM NaCl, 10 nM DY-547-labelled RNA, serially diluted protein; temperature not stated
[4] = system: ctMex67 LRR-NTF2L (RRM deletion);ctMtr2 (Chaetomium thermophilum;Chaetomium thermophilum); assay: fluorescence anisotropy; conditions: 20 mM Tris-HCl pH 8.0, 50 mM NaCl, 10 nM DY-547-labelled RNA, serially diluted protein; temperature not stated
[5] = system: ctMex67 deltaUBA (deltaN deltaUBA);ctMtr2 (Chaetomium thermophilum;Chaetomium thermophilum); assay: fluorescence anisotropy; conditions: 20 mM Tris-HCl pH 8.0, 50 mM NaCl, 10 nM DY-547-labelled RNA, serially diluted protein; temperature not stated

UUUUUUUUUUUUUUU [polyU15] showed a Kd ([1]; printed '930 and 6.0 µM, respectively', 930 read as nM) of 930 nM.

With “Chaetomium thermophilum Mex67 LRR-NTF2L (ctMex67^LRR-NTF2L; residues 180-556) (domain or fragment)” the stoichiometry N [2] was 2.

For CCCCCCCCCCCCCCC [polyC15], the Kd [1] was 6000 nM.

Substance AAAAAAAAAAAAAAA [polyA15] has a Kd [1] of 350 nM, a Kd [3] of 5500 nM and a Kd [4] of 6800 nM. The Kd [5] was 370 nM.

In the case of GGGGGGGGGGGGGGG [polyG15], the Kd [1] is reported as 310 nM.
